In patent publication US20210179728A1 (OSE IMMUNOTHERAPEUTICS, published 2021):
Where a chain is given by its changes, count along the chain named. In names and notes the source's numbering stands. Blank lines part the entries; values can stand above or below the binder they belong to.

Columns and labels:
[1] = biological target: T1, recombinant hSIRPa (Sino Biologicals, reference 11612-H08H) (human, UniProt P78324 31-370); assay: competition ELISA on coated SIRPa-His; competitor biotinylated CD47-Fc at 6 ug/ml, streptavidin-peroxidase [panel CD86]
T1 construct: also called SIRPa-His; human SIRPa-His; not shown: His tag (histidine tail)
Protocol: (§1) Method: For competitive ELISA assay, recombinant hSIRPa (Sino Biologicals, Beijing, China; reference 11612-H08H) was immobilized on plastic at 0.5 μg/ml in carbonate buffer (pH9.2).

[2] = biological target: T1, recombinant hSIRPa (Sino Biologicals, …); assay: ELISA on immobilized SIRPa-His, peroxidase anti-human IgG, DO 450nm [panel CD86]
Protocol: (§2) Method: For ELISA assay, recombinant hSIRPa (Sino Biologicals, Beijing, China; reference 11612-H08H) was immobilized on plastic at 0.5 μg/ml in carbonate buffer (pH9.2) and different modified anti-SIRPa antibodies were added to measure binding to SIRPa.

CTLA4-Fc = biological target: T2, CTLA4-Fc (human, UniProt P16410 36-161, limits assumed); assay: ELISA: modified antibody (concentration on the axis) captured on SIRPa-His, then CTLA4-Fc, detected with mouse anti-human CTLA4 [panel CD86]
T2 construct: not shown: Fc; not specified
Excerpt: (§3) FIG. 24. Ligand binding assay with the different modified anti-SIRPa antibodies by ELISA.

[3] = biological target: T1, recombinant hSIRPa (Sino Biologicals, …); assay: ELISA on immobilized SIRPa-His, peroxidase anti-human IgG, DO 450nm [panel 4-1BBL]
Protocol: as §2

4-1BBFcHis = biological target: T3, 4-1BBFcHis (UniProt Q07011 24-186); assay: ELISA: modified antibody (concentration on the axis) captured on SIRPa-His, then 4-1BBFcHis, detected with mouse anti-His [panel 4-1BBL]
T3 construct: not shown: Fc and His tag; not specified
Excerpt: as §3

[4] = biological target: T1, recombinant hSIRPa (Sino Biologicals, …); assay: ELISA on immobilized hSIRPa-His, anti-human IgG detection, first experiment; first experiment
Protocol: (§4) Method: The binding activity of the anti-SIRPa antibodies was assessed by ELISA.

[5] = biological target: T1, recombinant hSIRPa (Sino Biologicals, …); assay: competition ELISA on immobilized SIRPa-His; competitor biotinylated CD47-Fc at 6 ug/ml, streptavidin-peroxidase [second experiment table]
Protocol: as §1

[6] = biological target: T1, recombinant hSIRPa (Sino Biologicals, …); assay: ELISA on immobilized SIRPa-His, peroxidase anti-human IgG, DO 450nm [all panels]
Protocol: as §2

[7] = biological target: T1, recombinant hSIRPa (Sino Biologicals, …); assay: SPR (Biacore); SIRPa-His immobilized on CM5 chip, antibody injected
Protocol: FIG. 2. Affinity analysis by Biacore of anti-SIRP antibodies on human SIRPa recombinant protein. SIRPa-His recombinant protein was immobilized onto a CM5 chip at 5 μg/ml (500 RU) and the indicated antibodies were added at different concentration.
Method: Recombinant hSIRPa (Sino Biologicals, Beijing, China; reference 11612-H08H) was immobilized into a CM5 sensor chip (GeHealthcare; France) at 5 μg/ml (500 RU) and antibodies were applied at different concentrations with a flow rate of 40 μl/min. Analysis was performed with a BIAcore 3000 (Biacore, GeHealthcare).

[8] = biological target: T4, recombinant hSIRPb-His (Antibodies-online, reference ABIN3077231) (human, UniProt Q5TFQ8 30-371); assay: BLI (Blitz); SIRPb-His on Ni-NTA biosensor, antibody at 20 ug/ml [B, table A]
T4 construct: also called SIRPb-His (Blitz); not shown: His tag
Protocol: FIG. 7. (A) Affinity analysis by Blitz of anti-SIRP antibodies on human SIRPb recombinant protein. SIRPb-His recombinant protein was immobilized onto a NINTA biosensor and the indicated antibodies were added at 20 μg/ml. […] (B) Binding analysis of anti-SIRP antibodies (human SIRPb-His coating and anti-human kappa detection).
(§5) Method: This method was performed with a Blitz (Forte Bio; USA; reference C22-2 No 61010-1). Recombinant hSIRPb-His (Antibodies-online; USA; reference ABIN3077231) was immobilized at 10 μg/ml by histidine tail into a Ni-NTA biosensor (Forte Bio; USA; reference 18-0029) for 30 seconds. Then, an anti-SIRPa antibody was associated at 20 μg/mL for 120 seconds. The dissociation of anti-SIRPa antibody was made in kinetics buffer for 120 seconds. Analysis of data was made with the Blitz pro 1.2 software, which calculated association constant (ka) and dissociation constant (kd) and determined the affinity constant KD […].

[9] = biological target: T1, recombinant hSIRPa (Sino Biologicals, …); assay: ELISA on immobilized hSIRPa-His, anti-human IgG detection, third experiment
Protocol: as §4

[10] = biological target: T5, recombinant hSIRPg-His (Sino Biologicals, reference 11828-H08H) (human, UniProt Q9P1W8 29-360); assay: BLI (Blitz); SIRPg-His on Ni-NTA biosensor, antibody at 10 ug/ml or 20 ug/ml (Example 9) [B, table A]
T5 construct: also called human SIRPg-His; not shown: His tag
Protocol: FIG. 8. (A) Affinity analysis by Blitz of anti-SIRP antibodies on human SIRPg recombinant protein. SIRPg-His recombinant protein was immobilized onto a NINTA biosensor and the indicated antibodies were added at 10 μg/ml. […] (B) Binding analysis by ELISA assay of anti-SIRP antibodies on SIRPg (human SIRPg-His coating and anti-human kappa detection).
as §5, with “hSIRPg-His (Sino Biologicals, Beijing, China;” for “hSIRPb-His (Antibodies-online; USA;”, “11828-H08H)” for “ABIN3077231)”

[11] = biological target: T1, recombinant hSIRPa (Sino Biologicals, …); assay: ELISA on immobilized hSIRPa-His, anti-human IgG detection, second experiment; second experiment
Protocol: as §4

[12] = biological target: T1, recombinant hSIRPa (Sino Biologicals, …); assay: ELISA on immobilized SIRPa-His, anti-human detection, DO 450nm [B,C, panel B table]

B3: HEFLB (antibody, human IgG4 S228P, kappa)
heavy: not shown
light: DVVMTQSPLSLPVTLGQPASISCRSSQSLVHSYGNTYLYWFQQRPGQSPRLLIYRVSNRFSGVPDRFSGSGSGTDFTLKISRVEAEDVGVYYCFQGTHVPYTFGGGTKVEIKRTVAAPSVFIFPPSDEQLKSGTASVVCLLNNFYPREAKVQWKVDNALQSGNSQESVTEQDSKDSTYSLSSTLTLSKADYEKHKVYACEVTHQGLSSPVTKSFNRGEC
notes: humanized 18D5 variant; IgG4m (S228P) / kappa; also called anti-SIRPa HEFLB
EC50 [4]: 4.4 ng/mL
IC50 [5]: 186 ng/mL
EC50 (read off the curve) [6]: ~10 ng/mL
Kd [7]: 0.289 nM
koff [7]: 0.000189 s⁻¹
kon [7]: 654000 M⁻¹ s⁻¹
Kd [8]: 86.9 nM
koff [8]: 0.00171 s⁻¹
kon [8]: 19400 M⁻¹ s⁻¹

B5: chimeric mouse/human 18D5 antibody (antibody, human IgG4 S228P, kappa)
heavy: not shown
light: DVVMTQTPLSLPVSLGDQASISCRSSQSLVHSYGNTYLYWYLQKPGQSPKLLIYRVSNRFSGVPDRFSGSGSGTDFTLKISRVEAEDLGVYFCFQGTHVPYTFGSGTKLEIKRTVAAPSVFIFPPSDEQLKSGTASVVCLLNNFYPREAKVQWKVDNALQSGNSQESVTEQDSKDSTYSLSSTLTLSKADYEKHKVYACEVTHQGLSSPVTKSFNRGEC
notes: mouse variable domains on human IgG4m (S228P) / kappa constant domains; also called chimeric antibody; chimeric 18D5
EC50 [9]: 2.74 ng/mL
EC50 [4]: 2.9 ng/mL
IC50 [5]: 304 ng/mL
Kd [10]: 64.8 nM
koff [10]: 0.00319 s⁻¹
kon [10]: 49300 M⁻¹ s⁻¹
EC50 [11]: 4.06 ng/mL
Kd [7]: 0.344 nM
koff [7]: 5.14e-05 s⁻¹
kon [7]: 149000 M⁻¹ s⁻¹
Kd [8]: 15.7 nM
koff [8]: 0.00138 s⁻¹
kon [8]: 88400 M⁻¹ s⁻¹

B6: HELA (antibody, V domains shown)
VH: EVQLVQSGAEVKKPGESLRISCKASGYSFTSYWVHWVRQMPGKGLEWMGNIDPSDSDTHYSPSFQGHVTLSVDKSISTAYLQLSSLKASDTAMYYCVRGGTGTLAWFAYWGQGTLVTVSS
VL: DVVMTQSPLSLPVTLGQPASISCRSSQSLVHSYGNTYLYWYQQRPGQSPRLLIYRVSNRFSGVPDRFSGSGSGTDFTLKISRVEAEDVGVYFCFQGTHVPYTFGGGTKVEIK
notes: also called humanized 18D5 variant HELA
EC50 [12]: 4.61 ng/mL

B7: HCLA (antibody, human IgG4 S228P, kappa, V domains shown)
VH: B6 VH with L104M
VL: DVVMTQSPLSLPVTLGQPASISCRSSQSLVHSYGNTYLYWYQQRPGQSPRLLIYRVSNRFSGVPDRFSGSGSGTDFTLKISRVEAEDVGVYFCFQGTHVPYTFGGGTKVEIKR
notes: humanized 18D5 variant; also called humanized 18D5 variant HCLA
EC50 [11]: 5.6 ng/mL

More lines, now with the values ahead:

IC50 (read off the curve) [1]: ~200 ng/mL
EC50 (read off the curve) [2]: ~8 ng/mL
binding result (CTLA4-Fc): binds
B1: modified anti-SIRPa HEFLB antibody with ECD of CD86 on the light chain (antibody, human IgG4 S228P, kappa)
heavy: not shown
light: DVVMTQSPLSLPVTLGQPASISCRSSQSLVHSYGNTYLYWFQQRPGQSPRLLIYRVSNRFSGVPDRFSGSGSGTDFTLKISRVEAEDVGVYYCFQGTHVPYTFGGGTKVEIKRTVAAPSVFIFPPSDEQLKSGTASVVCLLNNFYPREAKVQWKVDNALQSGNSQESVTEQDSKDSTYSLSSTLTLSKADYEKHKVYACEVTHQGLSSPVTKSFNRGECGGGGSGGGGSGGGGSAPLKIQAYFNETADLPCQFANSQNQSLSELVVFWQDQENLVLNEVYLGKEKFDSVHSKYMGRTSFDSDSWTLRLHNLQIKDKGLYQCIIHHKKPTGMIRIHQMNSELSVLANFSQPEIVPISNITENVYINLTCSSIHGYPEPKKMSVLLRTKNSTIEYDGVMQKSQDNVTELYDVSISLSVSFPDVTSNMTIFCILETDKTRLLSSPFSIELEDPQPPPDH
notes: as m32, ECD of CD86; also called VH+VLprot (CD86); HEF + LB-CD86

EC50 (read off the curve) [3]: ~7 ng/mL
EC50 (read off the curve) (4-1BBFcHis): ~200 ng/mL
B2: modified anti-SIRPa HEFLB antibody with ECD of 4-1BBL on the light chain (antibody, human IgG4 S228P, kappa)
heavy: not shown
light: DVVMTQSPLSLPVTLGQPASISCRSSQSLVHSYGNTYLYWFQQRPGQSPRLLIYRVSNRFSGVPDRFSGSGSGTDFTLKISRVEAEDVGVYYCFQGTHVPYTFGGGTKVEIKRTVAAPSVFIFPPSDEQLKSGTASVVCLLNNFYPREAKVQWKVDNALQSGNSQESVTEQDSKDSTYSLSSTLTLSKADYEKHKVYACEVTHQGLSSPVTKSFNRGECGGGGSGGGGSGGGGSREGPELSPDDPAGLLDLRQGMFAQLVAQNVLLIDGPLSWYSDPGLAGVSLTGGLSYKEDTKELVVAKAGVYYVFFQLELRRVVAGEGSGSVSLALHLQPLRSAAGAAALALTVDLPPASSEARNSAFGFQGRLLHLSAGQRLGVHLHTEARARHAWQLTQGATVLGLFRVTPEIPAGLPSPRSE
notes: as m32, ECD of 4-1BBL; also called VH+VLprot (4-1BBL); HEF + LB-4-1BBL

IC50 (read off the curve) [1]: ~200 ng/mL
EC50 (read off the curve) [2]: ~9 ng/mL
binding result (CTLA4-Fc): binds
B4: modified anti-SIRPa HEFLB antibody with ECD of CD86 on the heavy chain (antibody, human IgG4 S228P, kappa)
heavy: not shown
light: B3 light
notes: as m25, ECD of CD86; also called VHprot+VL (CD86); VH-CD86
